From US20260125472A1 (HEFEI TG IMMUNOPHARMA, published 2026)

Legend:
CD3E&D protein = biological target: T1, CD3E&D protein (UniProt P04234 22-105); test: SPR (Biacore 8K), antibody on CM5 chip, CD3 E&D antigen as analyte; set-up: Fold change: reference not given here
T1 construct: Purchased from Acro; also called CD3 E&D antigens; CD3E&D antigen protein
Method: In a Biacore 8K (Cytiva) system, the antibody was diluted to 10 μg/mL in HBS-EP running buffer and coupled to a CM5 chip (Cytiva) at a flow rate of 10 μL/min.

Trop2 protein = biological target: T2, Trop2 protein (UniProt P09758 27-274); test: ELISA, coated Trop2 protein, OD450
T2 construct: Bought recombinant protein; also called Trop2-Biotin protein (biotin-labelled, bridging ELISA)
T2 sequence (looked up): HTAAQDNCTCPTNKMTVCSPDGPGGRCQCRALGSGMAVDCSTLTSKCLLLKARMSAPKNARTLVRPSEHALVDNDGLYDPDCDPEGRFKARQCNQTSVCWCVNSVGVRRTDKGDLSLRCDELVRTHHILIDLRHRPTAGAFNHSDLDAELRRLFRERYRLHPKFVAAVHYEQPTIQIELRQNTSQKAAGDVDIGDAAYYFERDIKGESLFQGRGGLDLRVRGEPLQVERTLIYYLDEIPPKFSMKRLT
Source text: In this example, the binding properties of the CD3×Trop2 and CD3×PDL1 bispecific antibody (the production method and the amino acid sequences of the heavy and light chains were shown in Example 1) were detected by using ELISA. The CD3E&D, Trop2, or PDL1 protein was coated onto 96-well plates by inventors, and the strength of the signal after the addition of the antibody was used to determine the binding properties of the antibody and the corresponding protein.
(2) Trop2 protein (purchased from Acro) was diluted to 2 μg/ml with PBS buffer, added to a 96-well plate at a volume of 100 μL/well, and placed at 4° C. overnight. The PBS buffer in the 96-well plate was aspirated, and the plate was washed 6 times with PBST (pH 7.2 PBS containing 0.1% Tween 20) buffer. Then, 200 μL/well PBS/10% BSA was added and incubated at 37° C. for 2 h for blocking. The blocking solution was removed, and the plate was washed six times with PBST. Then, the to-be-tested bispecific antibodies, Cross3×Trop2, Cross303×Trop2, Cross307×Trop2, Cross308×Trop2, Cross309×Trop2, Cross310×Trop2, Cross311×Trop2, Cross312×Trop2, Cross313×Trop2, Cross314×Trop2, Cross316×Trop2, Cross317×Trop2, Cross318×Trop2, Cross323×Trop2, Cross325×Trop2, Cross326×Trop2, and control IgG1LALA (purchased from Bio-Tech), serially diluted with PBST/0.05% BSA, were added at 100 μL/well and incubated at 37° C. for 1 h. The reaction system was removed, and the plate was washed 6 times with PBST. Then, HRP (horseradish peroxidase)-labeled anti-human secondary antibody (Fab specific) (purchased from Sigma) diluted with PBST/0.05% BSA at 100 μL/well. After the plate was washed six times with PBST, TMB (tetramethylbenzidine) was added at 80 μL/well, and incubated at room temperature for 3 min. 4 M sulfuric acid was added at 80 μL/well to terminate the reaction. The absorbance was read at 450 nm using a microplate reader.

[1] = biological target: T3, Trop2 on A-375-Trop2 melanoma cells (UniProt P09758 27-323, limits assumed); test: flow cytometry, A-375-Trop2 cells, MFI [panel B]
T3 construct: whole, on cells
T3 sequence (looked up): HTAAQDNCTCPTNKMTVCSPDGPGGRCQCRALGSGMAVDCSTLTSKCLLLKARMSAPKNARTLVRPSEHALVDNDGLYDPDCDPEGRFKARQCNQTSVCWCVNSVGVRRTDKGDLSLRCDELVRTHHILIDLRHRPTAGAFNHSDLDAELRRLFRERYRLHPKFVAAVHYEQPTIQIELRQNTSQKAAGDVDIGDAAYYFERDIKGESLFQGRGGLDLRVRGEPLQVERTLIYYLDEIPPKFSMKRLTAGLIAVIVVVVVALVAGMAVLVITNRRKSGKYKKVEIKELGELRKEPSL
Method: (2) The tumor cells were diluted to 2×10⁶/ml with PBS and added to a 1.5 ml EP tube at a volume of 100 μl/tube, and goat serum was added thereto at 10 μl/tube. The cells were blocked at 4° C. for 30 min. The serially diluted bispecific antibodies, Cross3×Trop2, Cross303×Trop2, Cross307×Trop2, Cross308×Trop2, Cross309×Trop2, Cross310×Trop2, Cross311×Trop2, Cross312×Trop2, Cross313×Trop2, Cross314×Trop2, Cross316×Trop2, Cross317×Trop2, Cross318×Trop2, Cross323×Trop2, Cross325×Trop2, Cross326×Trop2, and Cross3×PDL1, Cross303×PDL1, Cross307×PDL1, Cross308×PDL1, Cross309×PDL1, Cross310×PDL1, Cross311×PDL1, Cross312×PDL1, Cross313×PDL1, Cross314×PDL1, Cross316×PDL1, Cross317×PDL1, Cross318×PDL1, Cross323×PDL1, Cross325×PDL1, Cross326×PDL1, and control hIgG1LALA (purchased from Bio-Tech) were added and incubated at 4° C. for 30 min. 1 ml of PBS was added to the EP tube, followed by centrifugation at 3500 rpm for 5 min at 4° C. The supernatant was discarded, and the cells were washed again with PBS. After centrifugation, the supernatant was completely discarded, and the cells were resuspended with PBS at 100 μl/tube. Alexa-647-labeled goat anti-human IgG secondary antibody (purchased from Jackson lab) was added at 1 μl/tube and incubated at 4° C. in the dark for 30 min. The cells were washed twice with PBS, and the supernatant was completely discarded after centrifugation. The cells were resuspended with PBS at 200 μl/tube and assay was performed using the flow cytometry.

T1 sequence (chain, as listed by the source limits assumed, chain 1 of 2): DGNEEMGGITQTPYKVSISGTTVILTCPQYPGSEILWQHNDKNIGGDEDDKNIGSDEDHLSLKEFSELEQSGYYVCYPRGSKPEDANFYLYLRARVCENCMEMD
T1 sequence (P04234 22-105 limits assumed, chain 2 of 2): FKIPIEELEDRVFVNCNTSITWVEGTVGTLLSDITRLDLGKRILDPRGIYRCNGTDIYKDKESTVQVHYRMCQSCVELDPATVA

Row | Binder | Fold change (CD3E&D protein) | Kd (CD3E&D protein) | koff (CD3E&D protein) | kon (CD3E&D protein) | EC50 (read off the curve) (Trop2 protein) | EC50 (read off the curve) [1]
1 | Cross3ZH07 (antibody, human IgG1, kappa, V domains shown) VH: EVQLLESGGGLVQPGGSLKLSCAASGFTFNTYAMNWVRQAPGKGLEWVARIRSKYNNYATYYADSVKDRFTISRDDSKNTAYLQMNNLKTEDTAVYYCVRHGMFGNSYVSWFAYWGQGTLVTVSS VL: ELVVTQEPSLTVSPGGTVTLTCRSSTGAVTTSNYANWVQQKPGQAPRGLIGGTNKRAPGTPARFSGSLLGGKAALTLSGVQPEDEAEYYCALWYPNPWVFGGGTKLTVLR | 69.1 | 11.4 nM | 0.00138 s⁻¹ | 121000 M⁻¹ s⁻¹ |  | 
2 | Cross3ZH09 (antibody, human IgG1, kappa, V domains shown) VH: EVQLLESGGGLVQPGGSLKLSCAASGFTFNTYAMNWVRQAPGKGLEWVARIRSKYNNYATYYADSVKDRFTISRDDSKNTAYLQMNNLKTEDTAVYYCVRHGNFGNSYVSWFLYWGQGTLVTVSS VL: ELVVTQEPSLTVSPGGTVTLTCRSSTGAVTTSNYANWVQQKPGQAPRGLIGGTNKRAPGTPARFSGSLLGGKAALTLSGVQPEDEAEYYCALWYPNPWVFGGGTKLTVLR | 636 | 105 nM | 0.00296 s⁻¹ | 28100 M⁻¹ s⁻¹ |  | 
3 | Cross3ZH16 (antibody, human IgG1, kappa, V domains shown) VH: EVQLLESGGGLVQPGGSLKLSCAASGFTFNTYAMNWVRQAPGKGLEWVARIRSKYNNYATYYADSVKDRFTISRDDSKNTAYLQMNNLKTEDTAVYYCVRHGNFGNSYVSWFAYWGQGTLVTVSS VL: ELVVTQEPSLTVSPGGTVTLTCRSSTGAVTTSNYANWVQQKPGQAPRGLIGGTNKRAPGTPARFSGSLLGGKAALTLSGVQPEDEAEYYCALWYPNDWVFGGGTKLTVLR | 105 | 17.3 nM | 0.0243 s⁻¹ | 1.41e+06 M⁻¹ s⁻¹ |  | 
4 | Cross3ZH23 (antibody, human IgG1, kappa, V domains shown) VH: EVQLLESGGGLVQPGGSLKLSCAASGFTFNTYAMNWVRQAPGKGLEWVARIRSKYNNYATYYADSVKDRFTISRDDSKNTAYLQMNNLKTEDTAVYYCVRHGNFGNDYVSWFAYWGQGTLVTVSS VL: ELVVTQEPSLTVSPGGTVTLTCRSSTGAVTTSNYANWVQQKPGQAPRGLIGGTNKRAPGTPARFSGSLLGGKAALTLSGVQPEDEAEYYCALWYSNPWVFGGGTKLTVLR | 4090 | 675 nM | 0.055 s⁻¹ | 81500 M⁻¹ s⁻¹ |  | 
5 | Cross3×Trop2 (bispecific antibody, also called parental Cross3×Trop2 bispecific antibody) scFv: not shown heavy: QVQLQQSGSELKKPGASVKVSCKASGYTFTNYGMNWVKQAPGQGLKWMGWINTYTGEPTYTDDFKGRFAFSLDTSVSTAYLQISSLKADDTAVYFCARGGFGSSYWYFDVWGQGSLVTVSSASTKGPSVFPLAPSSKSTSGGTAALGCLVKDYFPEPVTVSWNSGALTSGVHTFPAVLQSSGLYSLSSVVTVPSSSLGTQTYICNVNHKPSNTKVDKKVEPKSSDKTHTCPPCPAPEAAGGPSVFLFPPKPKDTLMISRTPEVTCVVVDVSHEDPEVKFNWYVDGVEVHNAKTKPREEQYNSTYRVVSVLTVLHQDWLNGKEYKCKVSNKALPAPIEKTISKAKGQPREPQVCTLPPSREEMTKNQVSLSCAVKGFYPSDIAVEWESNGQPENNYKTTPPVLDSDGSFFLVSKLTVDKSRWQQGNVFSCSVMHEALHNHYTQKSLSLSPGK light: DIQLTQSPSSLSASVGDRVSITCKASQDVSIAVAWYQQKPGKAPKLLIYSASYRYTGVPDRFSGSGSGTDFTLTISSLQPEDFAVYYCQQHYITPLTFGAGTKVEIKRTVAAPSVFIFPPSDEQLKSGTASVVCLLNNFYPREAKVQWKVDNALQSGNSQESVTEQDSKDSTYSLSSTLTLSKADYEKHKVYACEVTHQGLSSPVTKSFNRGEC |  |  |  |  | ~0.008 µg/mL | ~1 µg/mL
6 | Cross303×Trop2 (bispecific antibody) scFv: not shown heavy: QVQLQQSGSELKKPGASVKVSCKASGYTFTNYGMNWVKQAPGQGLKWMGWINTYTGEPTYTDDFKGRFAFSLDTSVSTAYLQISSLKADDTAVYFCARGGFGSSYWYFDVWGQGSLVTVSSASTKGPSVFPLAPSSKSTSGGTAALGCLVKDYFPEPVTVSWNSGALTSGVHTFPAVLQSSGLYSLSSVVTVPSSSLGTQTYICNVNHKPSNTKVDKKVEPKSSDKTHTCPPCPAPEAAGGPSVFLFPPKPKDTLMISRTPEVTCVVVDVSHEDPEVKFNWYVDGVEVHNAKTKPREEQYNSTYRVVSVLTVLHQDWLNGKEYKCKVSNKALPAPIEKTISKAKGQPREPQVCTLPPSREEMTKNQVSLSCAVKGFYPSDIAVEWESNGQPENNYKTTPPVLDSDGSFFLVSKLTVDKSRWQQGNVFSCSVMHEALHNHYTQKSLSLSPGK light: DIQLTQSPSSLSASVGDRVSITCKASQDVSIAVAWYQQKPGKAPKLLIYSASYRYTGVPDRFSGSGSGTDFTLTISSLQPEDFAVYYCQQHYITPLTFGAGTKVEIKRTVAAPSVFIFPPSDEQLKSGTASVVCLLNNFYPREAKVQWKVDNALQSGNSQESVTEQDSKDSTYSLSSTLTLSKADYEKHKVYACEVTHQGLSSPVTKSFNRGEC |  |  |  |  | ~0.008 µg/mL | ~1 µg/mL
7 | Cross307×Trop2 (bispecific antibody) scFv: not shown heavy: QVQLQQSGSELKKPGASVKVSCKASGYTFTNYGMNWVKQAPGQGLKWMGWINTYTGEPTYTDDFKGRFAFSLDTSVSTAYLQISSLKADDTAVYFCARGGFGSSYWYFDVWGQGSLVTVSSASTKGPSVFPLAPSSKSTSGGTAALGCLVKDYFPEPVTVSWNSGALTSGVHTFPAVLQSSGLYSLSSVVTVPSSSLGTQTYICNVNHKPSNTKVDKKVEPKSSDKTHTCPPCPAPEAAGGPSVFLFPPKPKDTLMISRTPEVTCVVVDVSHEDPEVKFNWYVDGVEVHNAKTKPREEQYNSTYRVVSVLTVLHQDWLNGKEYKCKVSNKALPAPIEKTISKAKGQPREPQVCTLPPSREEMTKNQVSLSCAVKGFYPSDIAVEWESNGQPENNYKTTPPVLDSDGSFFLVSKLTVDKSRWQQGNVFSCSVMHEALHNHYTQKSLSLSPGK light: DIQLTQSPSSLSASVGDRVSITCKASQDVSIAVAWYQQKPGKAPKLLIYSASYRYTGVPDRFSGSGSGTDFTLTISSLQPEDFAVYYCQQHYITPLTFGAGTKVEIKRTVAAPSVFIFPPSDEQLKSGTASVVCLLNNFYPREAKVQWKVDNALQSGNSQESVTEQDSKDSTYSLSSTLTLSKADYEKHKVYACEVTHQGLSSPVTKSFNRGEC |  |  |  |  | ~0.008 µg/mL | ~1 µg/mL
